Measured values reported in the supplement of paper PMC9732359.
± gives the uncertainty stated by the source.

Experiment: protein stability index of a GFP-peptide fusion (yeast GPS) (PSI 1-4); higher = more stable; sorted into four equal gates, so the index is relative within each strain
Summary of the method: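 Plasmids in a pooled yeast library fused tiled 17-residue yeast protein peptides downstream of GFP and also expressed Cherry. Mid-log cultures grown without leucine were sorted into four equal gates by GFP/Cherry fluorescence ratio. Each gate's plasmids were PCR-amplified and Illumina-sequenced, and reads were matched to strains by barcodes. The protein stability index is derived by multiplying each gate's read frequency by its gate number and summing the results.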

Row | Sequence | protein stability index (doa10∆) | protein stability index (pdr5∆) | protein stability index (san1∆) | protein stability index (ubr1∆)
1 | VEVCLADLQGSEDHSFR [RPS1A] | 3.44 ± 0.18 | 3.27 ± 0.11 | 3.21 ± 0.17 | 3.25 ± 0.19
2 | VEWNDQVEKLGKKMEAR [RPN9] | – | 3.28 ± 0.15 | 3.29 ± 0.12 | 3.34 ± 0.14
3 | VFGFRANKMRQDRLSDL [SMC4] | – | – | – | 2.74 ± 0.081
4 | VFGISKTSSGSYNYVEN [ITC1] | 3.33 ± 0.083 | 3.12 ± 0.073 | 3.17 ± 0.06 | 3.28 ± 0.041
5 | VFHDPDHSMILPSGVLS [SMC3] | 1.71 ± 0.15 | 2.08 ± 0.089 | 2.04 ± 0.13 | 2 ± 0.047
6 | VFSALKNLISRINTLPQ [ECM29] | 3.06 ± 0.12 | 2.36 ± 0.091 | 1.76 ± 0.22 | 2.71 ± 0.051
7 | VFVKKHHELIKVKHDSQ [SSN2] | 1.32 ± 0.07 | 1.29 ± 0.053 | 1.18 ± 0.095 | 1.35 ± 0.051
8 | VFYAELNEFFTRELAEE [RPS3] | 3.16 ± 0.13 | 3.24 ± 0.16 | 3.26 ± 0.09 | 3.28 ± 0.082
9 | VGACTDEEMTISQKLHD [RRP43] | 3.14 ± 0.1 | 3.04 ± 0.089 | 3.04 ± 0.084 | 3.12 ± 0.059
10 | VGFGESNFTSIIGPNGS [SMC1] | 3.37 ± 0.09 | 3.34 ± 0.078 | 3.15 ± 0.047 | 3.07 ± 0.054
11 | VGGCKDQIEKLREVVEL [RPT1] | 3.37 ± 0.071 | 3.4 ± 0.063 | 3.4 ± 0.048 | 3.33 ± 0.061
12 | VGLKNYDPQRDKRFSGS [RPL1A] | 3.23 ± 0.082 | 3.48 ± 0.1 | 3 ± 0.096 | 3.25 ± 0.061
13 | VGLVSPSFMLKHHQLFY [RPN1] | 1.64 ± 0.079 | 1.7 ± 0.083 | 1.32 ± 0.16 | 1.4 ± 0.062
14 | VGPSEQNFAEEDDSSNS [REC8] | 2.56 ± 0.15 | 2.62 ± 0.11 | – | –
15 | VGRQDPKKHLSETADET [RPN11] | 3.17 ± 0.078 | 2.96 ± 0.09 | 3.51 ± 0.066 | 2.92 ± 0.078
16 | VGVDQLSIELEGGKNQA [YJL039C/NUP192] | 3.08 ± 0.27 | 3.23 ± 0.16 | 3.06 ± 0.076 | 2.46 ± 0.14
17 | VGVIIFILTIATAFLGY [COB] | 2.31 ± 0.07 | 1.84 ± 0.052 | 1.82 ± 0.072 | 2.63 ± 0.039
18 | VHDKVLEDMVFPTEIVG [RPS7B] | 2.63 ± 0.13 | 2.83 ± 0.08 | 2.56 ± 0.083 | 3.06 ± 0.054
19 | VHDLNKYKSNTNNMEKI [SMC2] | 3.46 ± 0.17 | 3.58 ± 0.14 | 3.02 ± 0.15 | 3.47 ± 0.24
20 | VHELSKRVHTLLTLIVR [ISW2] | 1.34 ± 0.091 | 1.44 ± 0.064 | 1.96 ± 0.16 | 1.37 ± 0.041
21 | VHNTNSFIISSLDTLEL [NUT1] | 2 ± 0.076 | 2.34 ± 0.067 | 1.99 ± 0.086 | 2.54 ± 0.07
22 | VHPDYLYGAITEDRYNE [FAS2] | 1.08 ± 0.092 | 1.34 ± 0.097 | 1.14 ± 0.15 | 1.27 ± 0.086
23 | VHPIPDVAFADGGKTLR [YMR129W/POM152] | 2.5 ± 0.064 | 2.68 ± 0.086 | 2.66 ± 0.084 | 2.63 ± 0.051
24 | VIAKLNHNQFECKGCDN [RPB2] | 2.93 ± 0.054 | 3.14 ± 0.067 | 3 ± 0.05 | 3.01 ± 0.097
25 | VIEQCYLKFIPLKRAIW [SRB8] | 1.5 ± 0.053 | 1.69 ± 0.059 | 1.4 ± 0.099 | 1.32 ± 0.042
26 | VIGGNSLFHIVVDTEET [SMC3] | 2.73 ± 0.099 | 2.78 ± 0.091 | 2.54 ± 0.076 | 2.53 ± 0.06
27 | VILFDSDWNPQADLQAM [ISW2] | 3.12 ± 0.088 | 2.38 ± 0.08 | 2.84 ± 0.11 | 2.15 ± 0.057
28 | VILKQILQILDQDELVQ [SWP82] | 2.54 ± 0.051 | 2.52 ± 0.082 | 2.57 ± 0.063 | 2.5 ± 0.06

Row | Sequence | protein stability index (doa10∆) | protein stability index (pdr5∆) | protein stability index (san1∆) | protein stability index (ubr1∆)
29 | VINKLDRLILDLKLPPM [SNU114] | 2.05 ± 0.12 | 1.31 ± 0.12 | 1.06 ± 0.23 | 2.14 ± 0.1
30 | VINPQQLLKGLSLSFSK [DSN1] | 3.2 ± 0.11 | 3.1 ± 0.089 | 2.54 ± 0.086 | 3.12 ± 0.1
31 | VIPIRRGYWGTNLGQPH [RPS2] | 2.04 ± 0.074 | 1.67 ± 0.11 | 1.91 ± 0.18 | 1.79 ± 0.13
32 | VIQIVTGIFMAMHYSSN [COB] | 1.32 ± 0.078 | 1.16 ± 0.069 | 1.33 ± 0.17 | 1.46 ± 0.088
33 | VIRMVVLTAAGVERLIF [PRE3] | 2.33 ± 0.17 | 2.99 ± 0.13 | 2.42 ± 0.13 | 3.17 ± 0.14
34 | VITIKSRIRVKIEGCIS [RPB7] | 2.04 ± 0.082 | 2.13 ± 0.056 | 1.88 ± 0.081 | 2.07 ± 0.064
35 | VIVLSNISHLLEIASSI [SWI1] | 2.35 ± 0.059 | 1.67 ± 0.063 | 2.07 ± 0.082 | 1.8 ± 0.041
36 | VIVPLSTLSNWSSEFAK [SNF2] | 2.65 ± 0.049 | 2.35 ± 0.06 | 2.52 ± 0.051 | 2.6 ± 0.038
37 | VKEQTEAAKKSEKKAKK [RPL34A] | 3.36 ± 0.13 | 3.48 ± 0.094 | 3.18 ± 0.038 | 3.31 ± 0.067
38 | VKGTNISEKDLVPKRCL [RPO31] | 2.63 ± 0.12 | 3.39 ± 0.13 | 3.42 ± 0.082 | 3.12 ± 0.09
39 | VKKLEIQQHARYDCSFC [RPL43A] | 2.73 ± 0.11 | 2.87 ± 0.092 | 2.96 ± 0.068 | 3.3 ± 0.092
40 | VKKVIEINPFLLGTMAG [PRE2] | 1.37 ± 0.14 | 1.86 ± 0.18 | 1.38 ± 0.28 | –
41 | VKPISIEAPQFYRYWSA [SWI3] | 2.23 ± 0.036 | 2.09 ± 0.036 | 1.85 ± 0.055 | 2.02 ± 0.032
42 | VKQIAPAELEGLLDLER [FAS2] | 3.11 ± 0.3 | – | – | –
43 | VKQVLLSVEIGVLTDIS [NUT1] | 1.16 ± 0.063 | 1.47 ± 0.056 | 1.37 ± 0.18 | 1.64 ± 0.066
44 | VKWQYDPNNPVDFDGLD [SNF12] | 2.74 ± 0.062 | 3.02 ± 0.053 | 2.25 ± 0.07 | 2.87 ± 0.03
45 | VLCNSNISKSRAKPVTN [RRP6] | 2.3 ± 0.083 | 2.67 ± 0.096 | 2.09 ± 0.11 | 2.14 ± 0.067
46 | VLDVDPKYAKQKDKSDT [ISW2] | 2.91 ± 0.11 | 3.01 ± 0.069 | 3.05 ± 0.14 | 3.03 ± 0.084
47 | VLEERERGQKVKNVKNS [ARP9] | 2.71 ± 0.19 | 2.25 ± 0.078 | 2.71 ± 0.12 | 1.19 ± 0.074
48 | VLEKYEVIGYIAAGTYG [SSN3] | 1.34 ± 0.088 | 1.55 ± 0.14 | – | 1.28 ± 0.075
49 | VLEQLSGQTPVQSKARY [RPL11A] | 3.2 ± 0.24 | 2.98 ± 0.17 | 2.91 ± 0.077 | 3.15 ± 0.088
50 | VLKCLKSLESQRYVKSV [RPC34] | 1.72 ± 0.059 | 1.94 ± 0.054 | 1.99 ± 0.1 | 1.91 ± 0.07
51 | VLKKKNIQKKQPAKEKG [RRP6] | 3 ± 0.085 | 3.03 ± 0.067 | 3.09 ± 0.042 | 3.22 ± 0.044
52 | VLKYMLLSKIMLNLIDD [RPN6] | 2.04 ± 0.06 | 1.49 ± 0.05 | 1.2 ± 0.098 | 1.66 ± 0.045
53 | VLQYSDWESDLHIHLNQ [YDL116W/NUP84] | 2.48 ± 0.073 | 2.61 ± 0.065 | 2.75 ± 0.066 | 3.04 ± 0.081
54 | VLVDEIKSQYYSRISKL [YIL149C/MLP2] | 2.41 ± 0.054 | 2.46 ± 0.045 | 2.3 ± 0.058 | 2.29 ± 0.034
55 | VLVKWTRTIKQNNFHVL [RGR1] | – | 1.3 ± 0.27 | – | –
